One assay relates to serum hepcidin. Put plainly: Serum hepcidin levels after LPS injection, I-HBD assay. The format is in vivo. The following applies: LPS injected mice. The protocol:
FIGS. 5A-E illustrate the hepcidin concentrations in mice and human sera. In FIG. 5A, different concentrations of serum were incubated with a known amount of ^125I-hepcidin and I-HBD for 18 hours at 37° C. The beads were washed and radioactivity bound to the beads was determined. A standard curve was determined by incubating known amounts of hepcidin with ^125I-hepcidin and HBD-beads. In FIG. 5B, sera was obtained from wild type mice (C57/Bl6) or from mice that were homozygous for a targeted gene deletion in HFE or homozygous or heterozygous for a targeted gene deletion in the HAMP gene. […] The beads were washed and the amount of radioactivity was determined. Serum hepcidin levels were calculated relative to a standard curve. […] Sera was obtained from the mice 10 hours later and the hepcidin concentration was determined as described in FIG. 5A. In FIG. 5D hepcidin levels were measured in different strains of mice. […] Hepcidin levels were determined as in FIG. 5A. The serum iron (SI), […] (TIBC) and transferrin saturation was calculated as described herein. Each sample was analyzed in triplicate and the error bars represent the standard deviation
HBD peptides were immobilized by covalently attaching them to agarose beads. […] The fluid was removed and the radioactivity bound to beads was determined by gamma counting (Perkin/Elmer). […]

In a further assay the target is T1, I-HBD (Homo sapiens, UniProt Q9NP59).
T1 construct: made in house; host or cells: chemical synthesis
As to the kind of experiment: Effect of NEM on 125I-hepcidin binding to I-HBD. The protocol:
FIGS. 3A and 3B illustrate that the dissociation of the hepcidin/HBD complex is accelerated by low temperature. In FIG. 3A ^125I-hepcidin was added to I-HBD and a complex was allowed to form at 37° C. The I-HBD/^125I-hepcidin complex was washed and then incubated with an excess of non-radioactive hepcidin. The samples were then incubated at 37° C. (closed circle) or 4° C. (open circle) for the specified times and the amount of radioactivity remaining bound to the I-HBD was determined. The data are expressed as radioactivity at each time point relative to the amount bound at time zero. In FIG. 3B the ^125I-hepcidin/1-HBD complex was allowed to form at 37° C., the complex was then washed and incubated with the indicated concentration of NEM and the amount of bound radioactivity was determined after a four-hour incubation (closed circles). I-HBD alone was also incubated with the specified concentrations of NEM for 2 hours. The I-HBD beads were washed and then ^125I-hepcidin was added at 37° C. and the amount of bound radioactivity was determined after a four-hour incubation (open circles).

The target of assay [1] is T2, hepcidin (Homo sapiens, UniProt P81172, M80Y).
T2 construct: generates the mature bioactive 25-amino acid form found in plasma and urine; made in house; host or cells: chemical synthesis
T2 sequence (P81172 60-84 M80Y): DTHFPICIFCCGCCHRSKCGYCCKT
As to the kind of experiment: Inhibition of hepcidin-mediated Fpn-GFP internalization in HEK293TFpn-GFP cells by peptides preincubated with hepcidin. Format: cell-based. The following applies: preincubation at 37° C. The procedure:
(§1) FIGS. 1A-D illustrate inhibition of hepcidin-mediated Fpn internalization by HBD. […] The HBD peptides and hepcidin were mixed at an equal molar ratio for two hours at 37° C. and then added to cells for one or 24 hours. Fpn internalization at one hour was analyzed by epifluorescence (upper panel) and the percentage of cells showing internalized Fpn-GFP at one and 24 hours was quantified (lower panel). The data represent the standard error of the mean from analyzing over 10 fields (20-30 cells) per sample. FIG. 1B illustrates HBD inhibition of Fpn-GFP internalization. Fpn-GFP expressing cells were incubated with hepcidin, hepcidin preincubated with HBD at 37° C. or hepcidin preincubated with HBD at 4° C. Fpn-GFP internalization at one (black bars) and 24 (grey bars) hours was quantified. The percentage of cells with internalized Fpn is shown. FIG. 1C illustrates that ^125I-hepcidin binds to HBD similarly to unlabeled hepcidin. ^125I-hepcidin was preincubated with HBD at 37° C. or 4° C. for one hour and then the mixture added to cells for one hour (black bars) or twenty-four hours (grey bars). The data are expressed as in FIG. 1B. FIG. 1D illustrates the fact that binding of hepcidin to HBD is reversible by low temperature. In the left panel the samples were treated as in FIG. 1C. In the right panel, the sample was incubated at 37° C. and was placed at 4° C. for four hours. The mixture was then incubated with cells at 37° C. and the internalization of Fpn-GFP was determined after one (black bars) or twenty four hours (grey bars).
(§2) Incubation of HEK293TFpn-GFP cells with hepcidin results in the internalization of cell surface Fpn-GFP (2) and FIG. 1A. […] Previously it was determined that hepcidin binding to Fpn was temperature dependent (2).
(§3) HEK293TFpn-GFP, a stable cell line in which Fpn-Green fluorescent protein (GFP) expression is regulated by the ecdysone promoter has been described previously (2).
(§4) Peptides were synthesized at the DNA/Peptide Core Facility, University of Utah, Salt Lake City, Utah. The peptides were synthesized with two arginines added at the amino and carboxyl terminals. […] Microscope analysis was carried out using an Olympus BX51 microscope (Olympus, Tokyo, Japan). Images were acquired using Picture Frame 2.5 software (Olympus America, East Muskogee, Okla.). All experiments were repeated a minimum of 5 times.
(§5) To characterize the interaction of the HBD with hepcidin, hepcidin was labeled at an iodinateable tyrosine to produce ^125I-hepcidin. Previously, it was shown that ^125I-hepcidin bound to Fpn indistinguishably from hepcidin that lacked the iodinateable tyrosine (2). HBD was then conjugated to agarose beads to produce immobilized HBD (I-HBD), which was then preincubated with ^125I-hepcidin at 37° C. prior to addition to Fpn-GFP expressing cells.

Assay [2] concerns the target T3, hepcidin (Homo sapiens, UniProt P81172).
T3 construct: generates the mature bioactive 25-amino acid form found in plasma and urine; made in house; host or cells: chemical synthesis
T3 sequence (P81172 60-84): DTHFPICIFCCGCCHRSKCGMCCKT
The description is as above. Format: cell-based. The following applies: peptide preincubated with hepcidin at equal molar amounts, 37° C.; HEK293TFpn-GFP cells. The procedure:
as §1, §2, §3, §4, §5

Another assay deals with T4, Fpn (Homo sapiens, UniProt Q9NP59).
T4 sequence (Q9NP59 1-571): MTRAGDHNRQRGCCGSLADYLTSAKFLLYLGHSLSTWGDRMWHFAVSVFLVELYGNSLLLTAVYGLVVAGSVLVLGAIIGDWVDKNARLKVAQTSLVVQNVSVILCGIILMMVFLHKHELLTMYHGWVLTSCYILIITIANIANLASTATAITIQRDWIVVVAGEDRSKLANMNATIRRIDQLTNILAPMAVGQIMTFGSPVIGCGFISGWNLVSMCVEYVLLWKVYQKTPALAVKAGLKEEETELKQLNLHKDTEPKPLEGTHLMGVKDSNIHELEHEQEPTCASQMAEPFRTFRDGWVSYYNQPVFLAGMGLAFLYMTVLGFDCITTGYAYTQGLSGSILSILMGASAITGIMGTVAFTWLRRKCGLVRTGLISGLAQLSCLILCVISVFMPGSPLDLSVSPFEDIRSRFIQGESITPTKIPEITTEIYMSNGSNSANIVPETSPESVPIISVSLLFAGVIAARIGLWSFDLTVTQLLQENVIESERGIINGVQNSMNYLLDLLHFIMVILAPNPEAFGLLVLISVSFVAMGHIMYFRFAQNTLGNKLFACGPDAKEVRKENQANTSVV
The following applies: reference (7); cited from earlier work.

Assay [3] addresses T5, I-HBD (hepcidin binding domain of ferroportin) (Homo sapiens, UniProt Q9NP59).
T5 construct: made in house; host or cells: chemical synthesis
Put plainly: Competition with 125I-hepcidin for binding to I-HBD beads. The procedure:
(§6) FIGS. 2A-C illustrates that the binding of ^125I-hepcidin to HBD is specific and temperature dependent. In FIG. 2A peptides (HBD, scrambled-HBD or mutant (C326Y HBD) were conjugated to beads and ^125I-hepcidin was added to the bead-immobilized peptides (I-HBD) for 18 hours at 37° C. (black bars) or 4° C. (grey bars). The beads were washed and the amount of ^125I-hepcidin bound to the I-HBD was determined. In FIG. 2B a sub saturating concentration of ^125I-hepcidin (0.6 μg/ml) was incubated with I-HBD for 18 hours at 37° C. in the presence or absence of known concentrations of either hepcidin 25 (Hep 25-open circles) or hepcidin 25 synthesized with a tyrosine substitution at position M21 (Y-Hep 25) and the amount of radioactivity bound to the I-HBD determined. In FIG. 2C sub saturating levels of ^125I-hepcidin were incubated with I-HBD at different temperatures.
The binding of ^125I-hepcidin could be reduced by addition of native non-radioactive hepcidin with an apparent K of approximately 200 nM (FIG. 2B). There was no binding of ^125I-hepcidin to I-HBD at 4° C. and ^125I-hepcidin bound to I-HBD at 37° C. was released when subsequently placed at 4° C. (data not shown).
HBD peptides were immobilized by covalently attaching them to agarose beads. […] The fluid was removed and the radioactivity bound to beads was determined by gamma counting (Perkin/Elmer).

In a further assay the target is T6, 125I-hepcidin (Homo sapiens, UniProt P81172, M80Y).
T6 construct: hepcidin 25 synthesized with a tyrosine substitution at position M21 (Y-Hep 25); made in house; host or cells: chemical synthesis
T6 sequence (P81172 60-84 M80Y): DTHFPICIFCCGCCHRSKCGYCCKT
As to the kind of experiment: 125I-hepcidin binding to bead-immobilized peptides. The following applies: 37° C.; listed as HBD peptide containing the human Fpn mutation C326Y. The protocol:
as §6, with “In FIG. 2C sub saturating levels of ^125I-hepcidin were incubated with I-HBD at different temperatures.” left out
FIGS. 3A and 3B illustrate that the dissociation of the hepcidin/HBD complex is accelerated by low temperature. […] (open circle) for the specified times and the amount of radioactivity remaining bound to the I-HBD was determined. The data are expressed as radioactivity at each time point relative to the amount bound at time zero. In FIG. 3B the ^125I-hepcidin/1-HBD complex was allowed to form at 37° C., the complex was then washed and incubated with the indicated concentration of NEM and the amount of bound radioactivity was determined after a four-hour incubation (closed circles). […]

Entries after “also recorded” stand apart in the source; their conditions may differ. No end group written: not given here.

T5 sequence (Q9NP59 with tags, fused parts or gaps limits assumed): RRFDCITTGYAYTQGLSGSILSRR

Regarding lipopolysaccharide [LPS], in the assay on serum hepcidin, the “hepcidin levels in sera” value was “two-fold increase”.

Regarding `CCN1C(=O)C=CC1=O` [NEM, N-ethylmaleimide], on I-HBD (I-HBD treated with NEM before 125I-hepcidin), the “125I-hepcidin binding activity of I-HBD” value is “loss of ^125I-hepcidin binding activity”. Also, the 125I-hepcidin/I-HBD complex result at I-HBD (NEM added after complex formed at 37° C.) is “the complex was not affected”.

For the compound “HBD Scramble: same amino acid composition as HBD in randomized sequence, RR-ILSLFDAYCTGTQITGSGSY-RR (SEQ ID NO: 3) (RRILSLFDAYCTGTQITGSGSYRR; HBD Scramble)”, the “Fpn-GFP internalization activity of 125I-hepcidin after preincubation with peptide” value with hepcidin [1] is recorded as “did not affect”. Moreover, the “hepcidin-mediated internalization of Fpn-GFP” value with hepcidin [2] is “did not prevent Fpn-internalization”.

With “Hep20: hepcidin derivative with the five amino terminal amino acids deleted (ICIFCCGCCHRSKCGMCCKT; not fully specified (N-terminus, C-terminus); ends and bridges not checked)”, in the assay with Fpn, the “binding to Fpn” value is “do not bind to Fpn”. Further, in assay [3], the “binding to HBD / I-HBD” value is “nor do they bind to HBD; also recorded: does not bind to I-HBD”.

Consider “HBD Mutant: Fpn peptide containing the C326Y mutation, RR-FDYITTGYAYTQGLSGSILS-RR (SEQ ID NO: 4) (RRFDYITTGYAYTQGLSGSILSRR; HBD Mutant)”, for which, in the assay with 125I-hepcidin, the “125I-hepcidin binding to the peptide” value was “did not bind ^125I-hepcidin”. Further, the “Fpn-GFP internalization activity of 125I-hepcidin after preincubation with peptide” value with hepcidin [1] is “did not affect”. Further, the “hepcidin-mediated internalization of Fpn-GFP” value in the assay with hepcidin [2] is given as “did not prevent hepcidin mediated Fpn-GFP internalization”.

The record behind these values is US8530619B2, “Identification of the hepcidin binding site on ferroportin” (University of Utah Research Foundation, priority 2007, dated 2013).
